Test results: publication PMC4490337, “Revisiting the intraperoxisomal pathway of mammalian PEX7” (Scientific Reports, 2015)

T1: PEX7 (in vitro synthesized) (human, UniProt O00628 1-323, unlabeled in the native-PAGE analyses; [35S]methionine label in the import/export assays)
T1 construct: also called cold PEX7; 35S-PEX7; source: in vitro translated (TNT T7 quick coupled kit, rabbit reticulocyte lysate), not purified
T1 sequence (looked up): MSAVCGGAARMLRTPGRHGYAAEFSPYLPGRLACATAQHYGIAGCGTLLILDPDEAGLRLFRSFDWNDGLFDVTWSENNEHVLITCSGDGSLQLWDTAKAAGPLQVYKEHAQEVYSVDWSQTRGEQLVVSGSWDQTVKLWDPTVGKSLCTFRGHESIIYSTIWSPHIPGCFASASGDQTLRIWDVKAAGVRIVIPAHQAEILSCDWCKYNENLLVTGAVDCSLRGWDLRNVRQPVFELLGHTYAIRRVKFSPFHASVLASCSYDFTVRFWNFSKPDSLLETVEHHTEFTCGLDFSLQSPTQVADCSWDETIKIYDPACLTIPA

B1: radiolabeled pre-phytanoyl-CoA hydroxylase (35S-prePHYH) (natural protein, human, UniProt O14832 1-338, looked up)
chain: MEQLRAAARLQIVLGHLGRPSAGAVVAHPTSGTISSASFHPQQFQYTLDNNVLTLEQRKFYEENGFLVIKNLVPDADIQRFRNEFEKICRKEVKPLGLTVMRDVTISKSEYAPSEKMITKVQDFQEDKELFRYCTLPEILKYVECFTGPNIMAMHTMLINKPPDSGKKTSRHPLHQDLHYFPFRPSDLIVCAWTAMEHISRNNGCLVVLPGTHKGSLKPHDYPKWEGGVNKMFHGIQDYEENKARVHLVMEKGDTVFFHPLLIHGSGQNKTQGFRKAISCHFASADCHYIDVKGTSQENIEKEVVGIAHKFFGAENSVNLKDIWMFRARLVKGERTNL
modifications: [35S]methionine label
notes: human phytanoyl-CoA hydroxylase, precursor form with the PTS2 (prePHYH); cDNA amplified with primers from the start to the stop codon and cloned into pGEM4 (pGEM4-prePHYH); also called radiolabeled prePHYH; source: in vitro translated (TNT T7 quick coupled kit, rabbit reticulocyte lysate), not purified
B2: ΔC1PEX5L, recombinant protein comprising amino acid residues 1-324 of the large isoform of human PEX5 (domain or fragment)
chain: not shown

Assays:
[1] = target: T1, PEX7 (in vitro synthesized); test: native gel or EMSA; chase of the pre-assembled trimeric ΔC1PEX5L-PEX7-35S-prePHYH complex with excess recombinant prePHYH (100 ng) at 23 °C, aliquots over 8 h; band intensity against time; conditions: partners not purified
[2] = target: T1, PEX7 (in vitro synthesized); test: cell-based or functional assay

Binder	half-life of prePHYH in the trimeric complex (with m3) [1] [h]	amount of 35S-labeled PEX7 exported from peroxisomes in 15 min after pre-incubation with ΔC1PEX5L, against pre-incubation with export-incompetent ΔC1PEX5L(C11A) [2] [fold]
B1	3.06	–
B2	–	~2
